Reference: the RNAGym collection of RNA variant scans (doi:10.7554/elife.90254)

B1: LINE1-full (parent)
chain: UACGUAGGUGGUUUUCCCCUGAUAGUGCUAAGGGGGCCUGGAAGUUUGGACUGGGCAGAGCUCAACACAGCGUGGCAAAGUGGCUGUGGCUAGACUGCCUCUCUGGAUUCCUCGUCACUCAGCAGGGCAUCUCUGAGAGAAAUGCC

Variants of: B1
Test: self-cleavage, relative activity (ratio to wild type); higher = more cleavage; in vitro, sequencing; the parent is a self-cleaving ribozyme
Work on UACGUAGGUGGUCUUCCCCUGAUAGUGCUAAUGGGGCCUGGAAGUUUGGACUGGGCAGAGCUCAACACAGCGUGGCAAAGUGGCUGUGGCUAGACUGCCUCUCUGGAUUCCUCGUCACUCAGCAGGGCAUCUCUGAGAGAAAUGCC yielded a self-cleavage of 1.2. In the case of UACGUAGGUGGUUAUCCCCUGAUAGUGCUAAGGGGGCCUGGAAGUUUGGACUGGGCCGAGCUCAACACAGCGUGGCAAAGUGGCUGUGGCUAGACUGCCUCUCUGGAUUCCUCGUCACUCAGCAGGGCAUCUCUGAGAGAAAUGCC, the self-cleavage is reported as 0.04. Work on UACGUAGGUGGUUUUCCCCUGAUAGCGCUAAGGGGGCCUGGAAGUUUGGACUGGGCAGAGCUCAACACAGCGUGGCAAAGUGGCUGUGGCUAGACUGCCUCUCUGGAUUCCUCGCCACUCAGCAGGGCAUCUCUGAGAGAAAUGCC yielded a self-cleavage of 1.84. In the case of UACGUAGGUGGUUUUCCCCUGAUAGCGCUAAGGGGGCCUGGAAGUUUGGACUGGGCAGAGCUCAACACAGCGUGGCAAAGUGGCUGUGGCUAGACUGCCUCUCUGGAUUCCUCGUCACUCUGCAGGGCAUCUCUGAGAGAAAUGCC, the self-cleavage is reported as 1.43. Work on UACGUAGGUGGUAUUCCCCUGAUAGUGCUAAGGGGGCCUGGAAGUUCGGACUGGGCAGAGCUCAACACAGCGUGGCAAAGUGGCUGUGGCUAGACUGCCUCUCUGGAUUCCUCGUCACUCAGCAGGGCAUCUCUGAGAGAAAUGCC yielded a self-cleavage of 0.59. Work on UACGUAGGUGGUUUUCCCCUGAUAGUGCUAAGGGGGCCUGGAAGUUUGGACUGGGCAGAGCUCAACACAGCGUGGCAAAGUGGCUGUGGCUAGACUUCCUCUCUGGAUUCCUCGUCACUCAGCAGGGCAUCACUGAGAGAAAUGCC yielded a self-cleavage of 0.03. Variant UACGUAGGUGGUUUUCCCCUGAUAGUGCUAUGGGGGCCUGGAAGUUUGGAGUGGGCAGAGCUCAACACAGCGUGGCAAAGUGGCUGUGGCUAGACUGCCUCUCUGGAUUCCUCGUCACUCAGCAGGGCAUCUCUGAGAGAAAUGCC has a self-cleavage of 1.4. With UACGUAGGUGGUUUUCCCCUGAUAGUGCUAAGGGGGCCUGGAAGUUUGGACUGGGCAGAGCUCAACACAGCGUGGCAACGUGGCUGUGGCUAGACUGCCUCUCUGGAUUCCUCGUCACUCAGCAGGGCGUCUCUGAGAGAAAUGCC the self-cleavage was 1.93. For UACGUAGGUGGUUUUCCCCUGAUAGUGCUAAGGGGGCCUGGAAGUUUGGACUGGGUAGAGCUCAACACAGCGUGGCAAAGUGGCGGUGGCUAGACUGCCUCUCUGGAUUCCUCGUCACUCAGCAGGGCAUCUCUGAGAGAAAUGCC, the self-cleavage was 0.03. In the case of UACGUAGGUGGUUUUCCCCUGAUAGUGCUAAGGGGGCCUGGAUGUUUGGACUGGGCAGAGCUCAACACAGCGUGGCAAAGUGGCUGUGGCUAGACUGCCUCGCUGGAUUCCUCGUCACUCAGCAGGGCAUCUCUGAGAGAAAUGCC, the self-cleavage is reported as 0.75. With UACGUAGGUGGUUCUCCCCUGAUAGUGCUAAGGGGGCCUGGAAGUUUGGACUGGGCAGAGCUCAACACAGCGUGGCAAAGUGGCUGUGGCUAGACUGCCUCUCUGGAUUCCUCGUCACUCAGCGGGGCAUCUCUGAGAGAAAUGCC the self-cleavage was 1.09. UACGUAGGUGGUUUUCCCCUGAUAGUGCUAAGGGGGCCUGGAAGUUUGGACUGGGCAGAGCUCAACACUGCGUGGCAAAGUGGCUGUGGCUAGAAUGCCUCUCUGGAUUCCUCGUCACUCAGCAGGGCAUCUCUGAGAGAAAUGCC showed a self-cleavage of 0.02. Work on UACGUAGGUGGUUUUCCCCUGAUAGUGCUAAGGGGGCCUGGAAGUUUGGACUGGGCAGAGCUCAACACAGCGUGGCAAAGUGGCUGUGGCUAGACUGCCUCUCUGGAUUCCUCGUCACUCAGCAGGGCAACUCUGAAAGAAAUGCC yielded a self-cleavage of 1.84. Variant UACGUAGGUGGUUUUCCCCUGAUAGUGCUAAGGGGGCCUGGAAGUUUGGACUGGGCAGAGCUCAACACAGCGUGGCAAAGUGGCUGUGGCUAGACUGCCUCUCUGGAUUCCUCGUCAUUCAGCAGGGCAUCUCUGAGAGAUAUGCC has a self-cleavage of 1.6. Variant UACGUAGGUGGUUUUCCACUGAUGGUGCUAAGGGGGCCUGGAAGUUUGGACUGGGCAGAGCUCAACACAGCGUGGCAAAGUGGCUGUGGCUAGACUGCCUCUCUGGAUUCCUCGUCACUCAGCAGGGCAUCUCUGAGAGAAAUGCC has a self-cleavage of 1.11. Work on UACGUAGGUGGUUUUCCCCUGAUAGUGCUAAGGGGGCCUGGAAGUUUGGACUGGGCAGAGCUCAACACAGCGUGACAAAGUGGCUCUGGCUAGACUGCCUCUCUGGAUUCCUCGUCACUCAGCAGGGCAUCUCUGAGAGAAAUGCC yielded a self-cleavage of 0.07. UACGUAGGUGGUUUUCCCCUGAUAGUGCUAAGGGGGCCAGGAAGUUUGGACUGGGCAGAGCUCAACGCAGCGUGGCAAAGUGGCUGUGGCUAGACUGCCUCUCUGGAUUCCUCGUCACUCAGCAGGGCAUCUCUGAGAGAAAUGCC gave a self-cleavage of 0.43. Variant UACGUAGGUGGUUUUCCCCUGAUAGUGCUAAGGGGGCCUGGAGGUUUGGGCUGGGCAGAGCUCAACACAGCGUGGCAAAGUGGCUGUGGCUAGACUGCCUCUCUGGAUUCCUCGUCACUCAGCAGGGCAUCUCUGAGAGAAAUGCC has a self-cleavage of 1.24. In the case of UACGUAGGUGGUUUUCCCCUGAUAGUGCUAAGGGGGCCUGGAAGUUUGGACUGGGCAGAGCUCAACACAGCGUGGCAAAGUGGCUGUGGCUAGACUGCCUCUCUGGGUUCCUCGUCACUCAGCAGGGCAUCUCUGAGAGAAGUGCC, the self-cleavage is reported as 1.83. Work on UACGUAGGUGGUUUUCCCCUGAUAGUGCUAAGGGGGCCUGGAAGUUUGGACUGGGCAGAGCUCAACACAGCGUGGCAAAAUGGCUGUGGCUAGACUGCCUCUCUGGAUUCCUCGUCACUCAGCAGGGCAUCUCUGAGGGAAAUGCC yielded a self-cleavage of 2.06. UACGUAGGUGGUUUUCCCCUGAUAGUGCUAAGGGGGCCUGGAAGUUUGGACUGGGCAGAGCUCAACACAGCGUGGCAAAGUGGCUGUGGCUAGACUGCCUUUCUGGAUUCCUCGUCACUCAGCGGGGCAUCUCUGAGAGAAAUGCC showed a self-cleavage of 2.06. UACGUAGGAGGUUUUCCCCUGAUAGUGCUAAGGGGGCCUGGAAGUUUGGACUGGGCAGAGCUCAACACAGCGUGGCAAAGUGGCUGUGGCUAGACUGCCUCUCUGGAUUCCUCGUCACUCAGCAGGGCCUCUCUGAGAGAAAUGCC showed a self-cleavage of 1.22. UACGUAGGUGGUUUUCCCCUGAUAGUGCUAAGGGGGCCUGGAAGUUUGGACUGGGCAGAGCUCAUCACAGCGUGGCAAAGUGGCUGUGGCUAGACUGCCUCCCUGGAUUCCUCGUCACUCAGCAGGGCAUCUCUGAGAGAAAUGCC showed a self-cleavage of 0.3. UACGUAGGUGGUUUUCCCCUGAUAGUGCUAAGGGGGCCUGGGAGUUUGGACUGCGCAGAGCUCAACACAGCGUGGCAAAGUGGCUGUGGCUAGACUGCCUCUCUGGAUUCCUCGUCACUCAGCAGGGCAUCUCUGAGAGAAAUGCC showed a self-cleavage of 0.84. For UACGUAGGUGGUUUUCCCCUGAUAGUGCUAAGGGGGCCUGGAAGUUUGGACUGGGCAGAGCUCGACACAGCGUGGCAAAGUGGCUGUGGCUAGACUGCCUCUCUGGAUUCCUCGACACUCAGCAGGGCAUCUCUGAGAGAAAUGCC, the self-cleavage was 0.08. UACGUAGGUGGUUUUCCCCUGAUAGUGCUAAGGGGGCCUGGAUGUUUGGACUGGGCAGAGCUCAACACAGCGUGGCAAAGUGGCUGUGGCUAGACUGCCUCUCUGGAUUCCUCGUCGCUCAGCAGGGCAUCUCUGAGAGAAAUGCC gave a self-cleavage of 1.25. UACGUAGGUGGUUUUCCCUUGAUAGUGCUAAGGGGGCCUGGAAGUUUGGACUGGGCAGAGCUCAACACAGCGUGGCAAAGUGGCUGUGGCUAGACUGCCUCUCUGGAUUCCUCGUCACUCAGCAGGGCAUCUCUGGGAGAAAUGCC gave a self-cleavage of 0.95. UACGUAGGUGGUUUUCCCCUGAUAGUGCUAAGUGGGCCUGGAAGUUUGGACUGGGCGGAGCUCAACACAGCGUGGCAAAGUGGCUGUGGCUAGACUGCCUCUCUGGAUUCCUCGUCACUCAGCAGGGCAUCUCUGAGAGAAAUGCC gave a self-cleavage of 0.64. For UACGUAGGUGGUUCUCCCCUGAUAGUGCUAAGGGGGCCUGGAAGUUUGGACUGGGUAGAGCUCAACACAGCGUGGCAAAGUGGCUGUGGCUAGACUGCCUCUCUGGAUUCCUCGUCACUCAGCAGGGCAUCUCUGAGAGAAAUGCC, the self-cleavage was 0.18. UACGUAGGUGGUUUUCCCCUGAUAGUGCUAAGGGGGCCUGGAAGUUUGGACUGGGCAGAGCUCAACACAGCGUGGCAAAGUGGGUGUGGCUAGACAGCCUCUCUGGAUUCCUCGUCACUCAGCAGGGCAUCUCUGAGAGAAAUGCC showed a self-cleavage of 0.09. UACGUAGGUGGUUUUCCCCUGAUAGUGCUAAGGGGGCCUGGAAGUUUGGACUGGGCAGAGCUCAACGCAGCAUGGCAAAGUGGCUGUGGCUAGACUGCCUCUCUGGAUUCCUCGUCACUCAGCAGGGCAUCUCUGAGAGAAAUGCC gave a self-cleavage of 0.21. With UACGUGGGUGGUUUUCCCCUGAUAGUGCUAAGGGGGCCUGGAAGUUUGGACUGGGCAGAGCUCAACACUGCGUGGCAAAGUGGCUGUGGCUAGACUGCCUCUCUGGAUUCCUCGUCACUCAGCAGGGCAUCUCUGAGAGAAAUGCC the self-cleavage was 0.22. Work on UACGUAGGUGGUUUUCCCCUGAUAGUGCUAAGGGGGCCUGGAAGUUUGGACUGGGCAGAGCUCAACACAGCGUGGCAAAUUGGCUGUGGCUAGACUGCCUCUCUGGAUUCCUCGUCACUCAGCAGGGCAUCUCUGAGGGAAAUGCC yielded a self-cleavage of 1.45. UACGUAGGUGGUUUUCCCCUGAUAGUGCUAAGGGGGCCUGGAAGUUUGGACCGGGCAGAGCUCAACACAGCGUGGCAAAGUAGCUGUGGCUAGACUGCCUCUCUGGAUUCCUCGUCACUCAGCAGGGCAUCUCUGAGAGAAAUGCC showed a self-cleavage of 1.7. Variant UACGUAGGUGGUUUUCCCCUGAUAGUGCUAAGGGGGCCUGGAAGUUUGGACUGGGCAGAGCUCAACACAGCGUGGCAAGGUGGCUUUGGCUAGACUGCCUCUCUGGAUUCCUCGUCACUCAGCAGGGCAUCUCUGAGAGAAAUGCC has a self-cleavage of 0.1. UACGUAGGUGGUUUUCCCCUGAUAGUGCUAAGGGGGCCUGGAAGUCUGGACUGGGCAGAGCUCAACACAGCGUGGCAAAAUGGCUGUGGCUAGACUGCCUCUCUGGAUUCCUCGUCACUCAGCAGGGCAUCUCUGAGAGAAAUGCC gave a self-cleavage of 2.95. UACAUAGGUGGGUUUCCCCUGAUAGUGCUAAGGGGGCCUGGAAGUUUGGACUGGGCAGAGCUCAACACAGCGUGGCAAAGUGGCUGUGGCUAGACUGCCUCUCUGGAUUCCUCGUCACUCAGCAGGGCAUCUCUGAGAGAAAUGCC showed a self-cleavage of 1.23. With UACGUAUGUGGUUUUCCCCUGAUAGUGCUAAGGGGGCCUGGAAGUUUGGACUGGGCAGAGCUCGACACAGCGUGGCAAAGUGGCUGUGGCUAGACUGCCUCUCUGGAUUCCUCGUCACUCAGCAGGGCAUCUCUGAGAGAAAUGCC the self-cleavage was 0.35. Variant UACGUAGGUGGUUUUCCCCUGAUAGUGCUAAGGGGGCCUGGAAGUUUGGACUGGGCAGAGCUCAACACAGCGUGGCAAAGUGGCUGUGGCUAGACUGCCUCUCUGGACUCCUCGUCAUUCAGCAGGGCAUCUCUGAGAGAAAUGCC has a self-cleavage of 2.01.
